Measurements taken from paper doi:10.1101/517573.

Target: hSgt2 M233D (Homo sapiens) (UniProt O43765)
Test: pull-down

UniProt O43765, sequence (O43765 213-313 M233D): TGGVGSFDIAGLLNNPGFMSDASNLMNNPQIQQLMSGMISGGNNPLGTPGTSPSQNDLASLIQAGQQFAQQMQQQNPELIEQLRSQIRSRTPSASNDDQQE

percent reduction of binding against wild type: 36%
B1: MBP-Sbh1 full length (natural protein)
chain: MSSPTPPGGQRTLQKRKQGSSQKVAASAPKKNTNSNNSILKIYSDEATGLRVDPLVVLFLAVGFIFSVVALHVISKVAGKLF
